Measured values taken from patent US7618977B2, “Method of treating dermatitis comprising administering a chymase inhibitor” (Asubio Pharma Co., Ltd., priority 2000, dated 2009).

Experiments:
Human heart chymase = biological target: T1, Human heart chymase (Homo sapiens, UniProt P23946); experiment: Measurement of chymase inhibitory activity; assay type: biochemical; settings: purified human heart chymase, substrate Suc-Ala-Ala-Pro-Phe-MCA, 30° C.
T1 construct: Human heart chymase was purified according to the method of Urata et al; from tissue; host or cells: human heart
T1 sequence (P23946 22-247): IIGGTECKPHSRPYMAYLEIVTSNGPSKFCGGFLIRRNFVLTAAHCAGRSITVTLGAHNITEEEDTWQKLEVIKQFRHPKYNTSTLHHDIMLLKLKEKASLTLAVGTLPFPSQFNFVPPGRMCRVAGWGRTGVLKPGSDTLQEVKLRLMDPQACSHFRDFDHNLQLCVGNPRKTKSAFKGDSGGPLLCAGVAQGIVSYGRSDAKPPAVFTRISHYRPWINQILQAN
Experimental: Human heart chymase was purified according to the method of Urata et al. (J. Biol. Chem., 1990, 265, 22348). The inhibitory activity of the quinazoline derivatives of the present invention with respect to chymase was measured in the following manner. That is, the purified enzyme solution was diluted to a suitable concentration with 0.1M tris-hydrochloride buffer (pH=7.5), 1M sodium chloride, and 0.01% TritonX-100 to obtain an enzyme solution. A 10 mM dimethyl sulfoxide (hereinafter referred to as DMSO) solution of Suc-Ala-Ala-Pro-Phe-MCA (Peptide Institute) was diluted 20-fold at the time of use by 0.1M tris-hydrochlorate, 1M sodium chloride, and 0.01% TritonX-100 to obtain the substrate solution.
75 μl of the enzyme solution warmed to 30° C. was mixed with 5 μl of DMSO solution of the test sample. The mixture was preincubated at 30° C. for 10 minutes. Next, 20 μl of a substrate solution warmed to 30° C. was mixed with the test sample-enzyme mixture and incubated at 30° C. After 10 minutes, 50 μl of 30% acetic acid was added to stop the enzymatic reaction. The amount of the AMC produced was quantified using a fluorescent photometer. At the same time, a blind test was carried out by adding, instead of the test sample solution, 5 μl of DMSO and performing the same reaction. […]

[1] = tested on: human polymorphonuclear leukocytes (PMN); experiment: Human chymase-induced migration of polymorphonuclear leukocytes, 48-well chemotaxis chamber; assay type: cell-based
Experimental: In Example 6, it was shown that a remarkable infiltration of leukocytes is observed in late-phase reaction of human chymase-induced dermatitis. The effect of human chymase on the migration of polymorphonuclear leukocytes (PMN) in vitro was investigated for the purpose of investigating the mechanism of chymase-induced leukocyte infiltration. PMN was isolated by adding a ⅕th volume of 6% dextran solution to heparinized whole blood from normal healthy subject and allowing it to stand at 37° C. for 1 hour, then layering the supernatent on Ficoll-Paque (Amersham Pharmacia Biotech) and centrifuging it. Further, the migration of PMN was measured by using a 48-well chemotaxis chamber (NeuroProbe Co.) by the textbook method (Seibutsu Yakkagaku Jikken Koza (Biopharmacology Experiment Lectures) 12, 315, Hirokawa Shoten). That is, a medium containing human chymase (200 to 800 nM) or fMLP (N-formyl-L-methionyl-L-leucyl-L-phenylalanine, Sigma-Aldrich Co.) (10 nM) was placed in the lower well of the chamber. The upper well and the lower well were separated by a polycarbonate filter (pore size 5 μm) (NeuroProbe Co.) PMN (1×10^6/ml) was added to the upper well and cultured at 37° C. for 1 hour, then the filter was fixed, stained and the number of cells in the membrane were counted under a microscope (400×) (Seibutsu Yakkagaku Jikken Koza (Biopharmacology Experiment Lectures) 12, 315). For the cell staining, a hemacolor solution (Merck) was used. In this test, when investigating the effect of the chymase inhibitor, a chymase inhibitor (Compound 18 or Compound 34) was dissolved in dimethyl sulfoxide and added to the lower well of the chamber just before the addition of the human chymase. The concentration of the compound was adjusted so that the final concentration of the dimethyl sulfoxide became 1%.

eosinophils of the skin = experiment: Administration of human chymase to mouse ears, number of eosinophils of skin; assay type: in vivo, mice; settings: p<0.01
Experimental: The effect of a chymase inhibitor on the infiltration of eosinophils of the skin in the test of Example 10 was studied. That is, 48 hours after the sixth application of hapten, the ears of the mice were fixed with formalin and paraffin sections prepared in accordance with an ordinary method. The sections were stained with Fast Green (Fluka), known to specifically stain eosinophils (Current Protocol in Immunology, Wiley Interscience). That is, the deparaffined sections were fixed with 100% methanol for 1 minute, then stained for 30 minutes by 0.2% Fast Green dissolved in 70% ethanol. The eosinophils were measured by randomly selecting 10 fields (×400) under a microscope and counting the number of cells per area using an ocular grid. As the chymase inhibitor, the Compound 18 and Compound 34 were used and =administered by the method described in Example 10. […] The thickness of the ear was measured by a micrometer (Digimatic Indicator, Mitsutoyo Co.) immediately before each administration of chymase and 1 hour, 6 hours, 24 hours, and 48 hours after the administration to find the increase from the ear thickness before the first administration of chymase. […] The number of eosinophils of the skin was measured by the method described in Example 11. […]

| Molecule | IC50 (Human heart chymase) | migration-promoting activity relative to fMLP ([1]; 200 to 400 nM chymase equals 10 nM fMLP) | concentration at which promotion of human PMN migration is statistically significant ([1]; chymase 200 to 800 nM in lower well, p<0.05 Dunnett's test) | increase in number of eosinophils compared with ear administered saline (eosinophils of the skin; 24 hours after single intradermal administration of 2.0 μg) | increase in number of eosinophils compared with group administered saline (eosinophils of the skin; administered at 1 week intervals four times in total, 1 week after administration) |
| --- | --- | --- | --- | --- | --- |
| CC(C(=O)O)C(=O)Nc1cccc(S(=O)(=O)n2c(=O)[nH]c3cc(Cl)ccc3c2=O)c1 (centres unmarked) [Compound 13, 2-{3-[(7-chloro-2,4(1H, 3H) -quinazolinedion-3-yl)sulfonyl]phenylaminocarbonyl}propionic Acid] | 300 nM | – | – | – | – |
| human chymase: recombinant human mature chymase expressed in CHO dhfr- cells, purified; serine protease of mast cells (protein, UniProt P23946 22-247, looked up) Chymase: IIGGTECKPHSRPYMAYLEIVTSNGPSKFCGGFLIRRNFVLTAAHCAGRSITVTLGAHNITEEEDTWQKLEVIKQFRHPKYNTSTLHHDIMLLKLKEKASLTLAVGTLPFPSQFNFVPPGRMCRVAGWGRTGVLKPGSDTLQEVKLRLMDPQACSHFRDFDHNLQLCVGNPRKTKSAFKGDSGGPLLCAGVAQGIVSYGRSDAKPPAVFTRISHYRPWINQILQAN | – | about 1/30 | ≥ 400 nM | approximately 7.6 fold | about 21 fold |
